Assay results as given in patent US20110300138A1 (published 2011).

What was measured:
[1] = molecular target: T1, thyroid stimulating hormone receptor (full length human TSHR) (human, UniProt P16473 22-764); assay: competitor ^125I-K1-70 IgG, TSHR coated tubes; 0.3 µg/mL in HBD
T1 construct: Full length TSHR coated onto plastic tubes (TSHR coated tubes, as in WO2004/050708A2); also called TSH receptor
Method: (§1) Binding inhibition assays were carried out using TSHR coated tubes as described in WO2004/050708A2. […] After aspiration, the tubes were washed and 100 μL of ¹²⁵I-labelled protein (5×10⁴ cpm) added and incubated for 1 hour at room temperature with shaking. The tubes were then aspirated, washed and counted in a gamma counter. Inhibition of labelled protein binding was calculated as 100×[1−(cpm bound in the presence of test material/cpm bound in the presence of control material)].

[2] = molecular target: T1, thyroid stimulating hormone receptor …; assay: competitor ^125I-K1-70 IgG, TSHR coated tubes; 10 µg/mL in HBD
Method: as §1

[3] = molecular target: T1, thyroid stimulating hormone receptor …; assay: competitor ^125I-K1-70 IgG, TSHR coated tubes; 100 µg/mL in assay buffer
Method: as §1

[4] = molecular target: T1, thyroid stimulating hormone receptor …; assay: competitor ^125I-K1-70 IgG, TSHR coated tubes; 0.001 µg/mL in HBD
Method: as §1

[5] = molecular target: T1, thyroid stimulating hormone receptor …; assay: competitor ^125I-K1-70 IgG, TSHR coated tubes; 3 µg/mL in HBD
Method: as §1

[6] = molecular target: T1, thyroid stimulating hormone receptor …; assay: competitor ^125I-K1-70 IgG, TSHR coated tubes; 0.01 µg/mL in assay buffer
Method: as §1

[7] = molecular target: T1, thyroid stimulating hormone receptor …; assay: competitor ^125I-K1-70 IgG, TSHR coated tubes; 0.01 µg/mL in HBD
Method: as §1

[8] = molecular target: T1, thyroid stimulating hormone receptor …; assay: competitor ^125I-K1-70 IgG, TSHR coated tubes; 0.003 µg/mL in assay buffer
Method: as §1

[9] = molecular target: T1, thyroid stimulating hormone receptor …; assay: competitor ^125I-K1-70 IgG, TSHR coated tubes; 100 µg/mL in HBD
Method: as §1

[10] = molecular target: T1, thyroid stimulating hormone receptor …; assay: competitor ^125I-K1-70 IgG, TSHR coated tubes; 1 µg/mL in HBD
Method: as §1

[11] = molecular target: T1, thyroid stimulating hormone receptor …; assay: competitor ^125I-K1-70 IgG, TSHR coated tubes; 0.1 µg/mL in assay buffer
Method: as §1

[12] = molecular target: T1, thyroid stimulating hormone receptor …; assay: competitor ^125I-K1-70 IgG, TSHR coated tubes; 0.001 µg/mL in assay buffer
Method: as §1

[13] = molecular target: T1, thyroid stimulating hormone receptor …; assay: competitor ^125I-K1-70 IgG, TSHR coated tubes; 10 µg/mL in assay buffer
Method: as §1

[14] = molecular target: T1, thyroid stimulating hormone receptor …; assay: competitor ^125I-K1-70 IgG, TSHR coated tubes; 0.003 µg/mL in HBD
Method: as §1

[15] = molecular target: T1, thyroid stimulating hormone receptor …; assay: competitor ^125I-K1-70 IgG, TSHR coated tubes; 0.03 µg/mL in assay buffer
Method: as §1

[16] = molecular target: T1, thyroid stimulating hormone receptor …; assay: competitor ^125I-K1-70 IgG, TSHR coated tubes; 1 µg/mL in assay buffer
Method: as §1

[17] = molecular target: T1, thyroid stimulating hormone receptor …; assay: competitor ^125I-K1-70 IgG, TSHR coated tubes; 30 µg/mL in assay buffer
Method: as §1

[18] = molecular target: T1, thyroid stimulating hormone receptor …; assay: competitor ^125I-K1-70 IgG, TSHR coated tubes; 3 µg/mL in assay buffer
Method: as §1

[19] = molecular target: T1, thyroid stimulating hormone receptor …; assay: competitor ^125I-K1-70 IgG, TSHR coated tubes; 0.03 µg/mL in HBD
Method: as §1

[20] = molecular target: T1, thyroid stimulating hormone receptor …; assay: competitor ^125I-K1-70 IgG, TSHR coated tubes; 0.1 µg/mL in HBD
Method: as §1

[21] = molecular target: T1, thyroid stimulating hormone receptor …; assay: competitor ^125I-K1-70 IgG, TSHR coated tubes; 30 µg/mL in HBD
Method: as §1

[22] = molecular target: T1, thyroid stimulating hormone receptor …; assay: competitor ^125I-K1-70 IgG, TSHR coated tubes; 0.3 µg/mL in assay buffer
Method: as §1

| Binder | Inhibition of binding (%) [1] [%] | Inhibition of binding (%) [2] [%] | Inhibition of binding (%) [3] [%] | Inhibition of binding (%) [4] [%] | Inhibition of binding (%) [5] [%] | Inhibition of binding (%) [6] [%] | Inhibition of binding (%) [7] [%] | Inhibition of binding (%) [8] [%] | Inhibition of binding (%) [9] [%] | Inhibition of binding (%) [10] [%] | Inhibition of binding (%) [11] [%] | Inhibition of binding (%) [12] [%] | Inhibition of binding (%) [13] [%] | Inhibition of binding (%) [14] [%] | Inhibition of binding (%) [15] [%] | Inhibition of binding (%) [16] [%] | Inhibition of binding (%) [17] [%] | Inhibition of binding (%) [18] [%] | Inhibition of binding (%) [19] [%] | Inhibition of binding (%) [20] [%] | other results |
| --- | --- | --- | --- | --- | --- | --- | --- | --- | --- | --- | --- | --- | --- | --- | --- | --- | --- | --- | --- | --- | --- |
| K1-70 IgG (antibody, V domains shown, Human IgG1 lambda purified from hetero-hybridoma supernatant) VH: EVQLVQSGAEVKKPGQSLKISCKASGYSLTDNWIGWVRQKPGKGLEWMGIIYPGDSDTRYSPSFQGQVTISADKSINTAYLQWSSLKASDTAIYYCVGLDWNYNPLRYWGPGTLVTVSS VL: QSVLTQPPSVSAAPGQKVTISCSGSSSDIGSNYVSWYQQFPGTAPKLLIYDNNKRPSAIPDRFSGSKSGTSATLGITGLQTGDEADYYCGTWDSRLGIAVFGGGTQLTVLG | 82.7 | 93.1 | 93.8 | -7.6 | 91.7 | 50.9 | 11.4 | 24 | 93.6 | 90.4 | 87.1 | 15.3 | 92.3 | 2.2 | 74.2 | 90.8 | 93.1 | 90.7 | 33.6 | 62.8 | Inhibition of binding (%) [21]: 94.3%; Inhibition of binding (%) [22]: 89.2% |
| K1-70 Fab (Fab, V domains shown) VH: EVQLVQSGAEVKKPGQSLKISCKASGYSLTDNWIGWVRQKPGKGLEWMGIIYPGDSDTRYSPSFQGQVTISADKSINTAYLQWSSLKASDTAIYYCVGLDWNYNPLRYWGPGTLVTVSS VL: QSVLTQPPSVSAAPGQKVTISCSGSSSDIGSNYVSWYQQFPGTAPKLLIYDNNKRPSAIPDRFSGSKSGTSATLGITGLQTGDEADYYCGTWDSRLGIAVFGGGTQLTVLG | 87.3 | 90.6 | 91.5 | -3.6 | 90.9 | 64.8 | 21.6 | 32.7 | 90.8 | 89.5 | 87.5 | 12.2 | 89.8 | 5.6 | 81.7 | 88.3 | 90.7 | 89.4 | 49.6 | 76.5 | Inhibition of binding (%) [21]: 91%; Inhibition of binding (%) [22]: 88% |
| K1-18 IgG (antibody, V domains shown, Human IgG1 kappa purified from hetero-hybridoma supernatant; it is not part of the secreted protein; also called human monoclonal TSHR autoantibody K1-18 (stimulating)) VH: EVQLVQSGAEVKKPGESLKISCKGSGYSFTNYWIGWVRQMPGKGLEWMGIIYPYDSDTRYSPSFEGQVTISADKSIRTAYLHWSSLKASDTAMYYCVRPRDGSYPYDAFDIWGQGTMVTVSS VL: EIVLTQSPGTLSLSPGERATLSCRASQSVSNNYLAWYQQKPGQAPRLLIYGASSRATGIPDRFSGSGSGTDFTLTISRLEPEDFAVYYCQHCGSSLRAFGQGTKVEIKR | 73.9 | 92.5 | 92.9 | -3 | 91 | 30.2 | 3.1 | 17 | 93.5 | 85.8 | 77.9 | 7.2 | 91.8 | -2.7 | 53.9 | 89.6 | 91.2 | 90.5 | 20 | 48.6 | Inhibition of binding (%) [21]: 92.2%; Inhibition of binding (%) [22]: 86.4% |
| K1-18 Fab (Fab, V domains shown) VH: EVQLVQSGAEVKKPGESLKISCKGSGYSFTNYWIGWVRQMPGKGLEWMGIIYPYDSDTRYSPSFEGQVTISADKSIRTAYLHWSSLKASDTAMYYCVRPRDGSYPYDAFDIWGQGTMVTVSS VL: EIVLTQSPGTLSLSPGERATLSCRASQSVSNNYLAWYQQKPGQAPRLLIYGASSRATGIPDRFSGSGSGTDFTLTISRLEPEDFAVYYCQHCGSSLRAFGQGTKVEIKR | 60.9 | 82 | 86 | 0.5 | 80.5 | 23.7 | 1.1 | 15.2 | 83.6 | 75.6 | 62.8 | 13.8 | 81.9 | -3.5 | 31.3 | 78.5 | 83.3 | 79.4 | 10.2 | 38.4 | Inhibition of binding (%) [21]: 83.2%; Inhibition of binding (%) [22]: 71.4% |
